From the supplement of paper PMC9170038 come the findings set out here.

The test system of the data set is MS2 coat protein. The experiment in a line: apparent KD of MS2 coat protein; designed switch direction (-1 OFF switch, 1 ON switch): -1; higher = weaker reporter binding. In outline: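 The reported apparent KD is a per-design median over clusters, from curve fits of normalised cluster fluorescence. Protein titrations used SNAP-549-labelled MS2 coat protein, doubled from 0.7 or 1.5 nM to 3 µM, in Tris-HCl pH 7.5 buffer with KCl, MgCl2, BSA, DTT, tRNA and Tween-20, with no input, 200 uM small-molecule ligand, or an oligonucleotide input. The RNA switches were transcribed on Illumina chips by stalled E. coli RNA polymerase.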

Where [1] appears, read: Eterna round: R95, input ligand: microRNA oligo, concentration not stated.
Setting [2] is: input ligand: microRNA oligo, concentration not stated.
[3] abbreviates: Eterna round: R95, input ligand: FMN 200 uM.
Where [4] appears, read: Eterna round: R95, input ligand: none.

“GUAGGUUAAGUAAGGAUAUACCUCUGGAAACAGAGGUAGAAGGUACAUGAGGAUCACCCAUGUUUCUCUUUUGC [Mod of Eli 6 - Jieux - Brourd's mod of Exclusion 4] (Eterna round: R97, puzzle: Brourd's mod of Exclusion 4)”: the “apparent KD of MS2 coat protein” value (input ligand: FMN 200 uM) was found to be 21.8 nM and the “apparent KD of MS2 coat protein” value (input ligand: none) came out at 18.7 nM.
As to “UUCGGCGCAGGAUAUACAGUUCUGUGUUGAAUCGGCGCGGGACAUGAGGAUCACCCAUGUAGAAGGGUGUUGGG [-26.9, -23.2 kcal, A 22%] (Eterna round: R97, puzzle: Exclusion 2)”, the “apparent KD of MS2 coat protein” value is, setting by setting: (input ligand: FMN 200 uM) 220 nM; (input ligand: none) 538 nM.
As to “GCAUGUUAUGUCAGGAUAUACCUAUGGAUACAUAGGUAGAAGGGACAUGAGGAUCACCCAUGUCCUAACCAUGC [Fiskers BMX 4 - 22] (puzzle: Brourd's mod of Exclusion 4)”, the “apparent KD of MS2 coat protein” value under setting [1] is 11.4 nM.
Consider “CUCUUGGCAGGAUAUGCUCUCUUAGACAUGAGGAUCACCCAUGUGCUCAUUCCUUCUUUUGCAGAAGGGCCUUAAC [JR_E5_Sub047] (puzzle: Exclusion 5)”, for which the “apparent KD of MS2 coat protein” value under setting [1] came out at 63.9 nM.
Regarding “CACGUACAGCAAGGAUAUCCAAAUGUUGAGCAUGGCCUAUCCAUACAUGAGGAUCACCCAUGUUCGGAGAAGGUGCAUGUAUCU [Enteinte] (Eterna round: R96, puzzle: Exclusion NG 2)”, the “apparent KD of MS2 coat protein” value by setting is: (input ligand: FMN 200 uM) 11.2 nM; under setting [2], 9.96 nM; (input ligand: none) 12.8 nM.
“AUUUUGUCAGGAUAUGAGUAGUAGGACGAAAGUGUUAUUAUUUAGAAGGGACAUGAGGAUCACCCAUGUUCCUC [Bring Us a Shrubbery-03] (puzzle: Exclusion 4)”: under setting [1], the “apparent KD of MS2 coat protein” value was found to be 12.1 nM.
On to “AAUUAGCUAGGAUAUACAUGAGGAUCACCCAUGUCAGUUACAUGGCCGGGUGUAACGAGUAGAAGGAGCGCCAA [EX3 B.28] (Eterna round: R97, puzzle: Exclusion 3)”, for which the “apparent KD of MS2 coat protein” value was 175 nM (input ligand: FMN 200 uM) and 513 nM (input ligand: none).
On to “ACUAGCUUUUUGCAUAGUAGGUUUGGUGCUUCGUAUGCAACAUGAGGAUCACCCAUGUAUUACUGAUGUCGUCGUUU [JR_SV3TOV2_Sub092] (puzzle: Sensor v3, turn-off variant 2)”, for which the “apparent KD of MS2 coat protein” value by setting is: under setting [3], 26.2 nM; under setting [1], 48.2 nM; under setting [4], 27.8 nM.
Take “GGUACUAACACGAAAGUGUUAGUACUGUAGGUUUGUGUUACAUGAGGAUCACCCAUGUCCUCAUAAGCUCGUCUUGU [JL-sv3-2.22 mat747 mod] (puzzle: Sensor v3, turn-off variant 2)”: the “apparent KD of MS2 coat protein” value under setting [3] came to 306 nM, the “apparent KD of MS2 coat protein” value under setting [1] came to 246 nM and the “apparent KD of MS2 coat protein” value under setting [4] came to 347 nM.
“CUAGCUUCGGCUAGUACAAGCUUUUUGCUCGUCUUAUUAACAUGAGGAUCACCCAUGUCAAAGAGACCUCAUGUAUU [Sensor v3 - turn-off variant 2 - 2] (puzzle: Sensor v3, turn-off variant 2)”: the “apparent KD of MS2 coat protein” value by setting is: under setting [3], 347 nM; under setting [1], 15.5 nM; under setting [4], 572 nM.
On to “CCUCAGUAAGGAUAUCAGCUUAUAAAGUUGGUAAUGAGAGCUGAGAAGGUACAUGAGGAUCACCCAUGUUAGUU [JL Zatite mod 5] (puzzle: Exclusion 4)”, for which the “apparent KD of MS2 coat protein” value under setting [1] amounted to 20.9 nM.
Consider “GCAAGACGAGGAUAUUGAGAAGGGAACAUGAGGAUCACCCAUGUGGUGGUUUCGACCGGUCGAGAAGGCGUAGAAC [EX5 B.6] (Eterna round: R97, puzzle: Exclusion 5)”, for which the “apparent KD of MS2 coat protein” value runs as follows: (input ligand: FMN 200 uM) 1150 nM; (input ligand: none) 957 nM.
Turning to “UUAAAUCAUGUAGGAUAUGCAAGGCGAACCUAUGCAGAAGGACAUGAGGAUCACCCAUGUGCUGCGGUCUGCGUACAGAUCGCU [JL ENG1 1.02] (Eterna round: R96, puzzle: Exclusion NG 1)”, the “apparent KD of MS2 coat protein” value by setting is: (input ligand: FMN 200 uM) 503 nM; under setting [2], 30.7 nM; (input ligand: none) 39 nM.
For “CCUUGUCUGAAGGAUAUCCGCCUAAAAGGCAAGGGAGAAGGUUAGACAUGAGGAUCACCCAUGUGCCGGUGUAA [EX6 A.26] (Eterna round: R97, puzzle: Exclusion 6)”, the “apparent KD of MS2 coat protein” value runs as follows: (input ligand: FMN 200 uM) 21.7 nM; (input ligand: none) 25.1 nM.
Consider “UCAUGGUAGCAGGAUAUGCUUGUUUUUUUUUUUGCAGAAGGGCUUACAUGAGGAUCACCCAUGUGAGAGGUCUA [JR_E6_Sub066] (puzzle: Exclusion 6)”, for which the “apparent KD of MS2 coat protein” value under setting [1] worked out at 19.9 nM.
Turning to “UUUGUUUAUGUAGGAUAUGCCUGGCGUGCCUUCGCAGAAGGACAUGAGGAUCACCCAUGUAUUGCGGUCUGCGUUCAGAUCGCG [salish99_ExNG1_r4_029] (Eterna round: R96, puzzle: Exclusion NG 1)”, the “apparent KD of MS2 coat protein” value reads like this: (input ligand: FMN 200 uM) 52 nM; under setting [2], 34.8 nM; (input ligand: none) 43.2 nM.
